From patent US20060148057A1, “Thioredoxin mutants and uses thereof” (priority 2002, published 2006)

Tested on: BAEC
Experiment: GFP killing assay, TNF+CHX-induced EC death
Type: cell-based, Bovine
Conditions: TNF 10 ng/ml plus CHX 10 μg/ml for 24 h; vector control 25% survival
Procedure: Trx inhibits ASK1-induced JNK activation and caspase 3 activity. BAEC were co-transfected with ASK1 and Trx constructs in 1:1 ratio as indicated: control vector alone (Ctrl), ASK1 with VC, Trx-WT, Trx-CS, Trx-C32S or Trx-C35S. 24 h post-transfection, cell lysates were used to examine JNK and caspase 3 activity. […] JNK activity was measured by an in vitro kinase assay GST-c-Jun as a substrate. Trx expression was determined by Western blot anti-Flag. […] Caspase 3 activity was measured by Sigma's Caspase 3 Fluorometric Assay Kit in the absence or presence of caspase 3 inhibitor Ac-DEVD-CHO. Assay was performed as duplicates. Caspase 3 activities were normalized with the Ctrl group (as zero). Data are presented from mean of two independent experiments. […] 48 h after transfection, GFP-positive cells were counted as survival cells. […] GFP-positive cells were counted as survival cells. […]
Quantitation of cell killing: Cell killing assay was performed as described previously with a modification (Slowik M R et al. Evidence that tumor necrosis factor triggers apoptosis in human endothelial cells by interleukin-1-converting enzyme-like protease- dependent and -independent pathways. Lab Invest. 77:257-67 (1997)). […] GFP-positive cells were visualized under a fluorescence microscope and counted as number of survival cells. […]

B1: Trx-C35S: C35S single mutant of Trx at the catalytic site, SEQ ID NO:3 (protein)
chain: MVKQIESKTAFQEALDAAGDKLVVVDFSATWCGPSKMIKPFFHSLSEKYSNVIFLEVDVDDCQDVASECEVKCMPTFQFFKKGQKVGEFSGANKEKLEATINELV
survival after TNF+CHX (GFP-positive cells, Ctrl as 100%): 100±12%
